{
  "source": "patent US8513197B2",
  "about": "“Ganglioside epitopes for treating Guillain-Barre syndrome” (Georgia Regents University, priority 2009, dated 2013)",
  "key": {"LOSGD3-sensitized rats [1]": {"tested_on": "LOSGD3-sensitized rats", "assay": "Nerve conduction velocity (NCV) in rat tail nerve", "details": "LOSGD3/peptide-treated groups, week 16", "method": "Twelve-week-old female Lewis rats, weighing 200-220 g each, were used. One hundred micrograms of LOSGD3 was dissolved in 50 mM PBS buffer as vehicle, and with 0.05 mL of keyhole limpet hemocyanin (2 mg/mL) emulsified with an equal volume of complete Freund's adjuvant. A single subcutaneous injection of 0.1 mL of inoculum (or vehicle) was made into the rats' shoulders and hind limb footpads. Additional booster injections were administered similarly to LOSGD3- (or vehicle-) treated animals at 2-week intervals with 100 μg of LOSGD3 (or no additive) and 2 mg/mL of keyhole limpet hemocyanin in PBS emulsified with an equal volume of incomplete Freund's adjuvant after 6 weeks. Forty-four experimental animals were grouped into 10 treatment paradigms (n=4 each): (i) LOSGD3, (ii) LOSGD3/PGD3-3, (iii) LOSGD3/PGD3-4, (iv) LOSGD3/PGD3-5, (v) LOSGD3/PGD3-6, (vi) vehicle, (vii) vehicle/PGD3-3, (viii) vehicle/PGD3-4, (ix) vehicle/PGD3-5, and (x) LOSGD3/PGD3-6. The remaining four animals were the untreated control group (n=4). […]\nNCVs (m/s) were measured in the rat tail nerve using a Nicolet VikingQuest EMG machine (NeuroCare Group, Madison, Wis., USA) according to the method described previously (Usuki et al., 2006. J. Neurosci. Res. 83:274-284)."}, "mAb R24": {"tested_on": "mAb R24", "assay": "Competitive inhibition ELISA: binding of mAb R24 to GD3-coated plate", "procedure": "Subsequently, an aliquot (100 μl) was added to each well, and each well of the ELISA plate was coated with 0.1 μg GD3. The remaining binding activity of mAb R24 was determined by ELISA. Values are means±SD, n=6 individual experiments. […] The experiment at each dose was performed on three rats, and values are means±SD.\n(§1) Antiganglioside antibody activity was evaluated for GM1, GM2, GD1a, GD1b, GT1b, GQ1b, GD3, and LOSGD3 by conventional ELISA method (Usuki et al., 2005. J Neurol Sci 232: 37-44). […] Before the ELISA plate assay, each well was treated with 1% BSA/PBS solution. […] After incubation, the reaction mixture was passed through a 0.22-μm syringe filter (Millipore Corp., Bedford, Mass.). Subsequently, 100 μl of the mixture was added to each well and incubated for 1 hr at room temperature. To each of the wells, a secondary antibody (horseradish peroxidase-conjugated anti-mouse IgG, 1:5,000 dilution in 1% BSA/PBS solution) was added and incubated for 1 hr at room temperature. Finally, the bound secondary antibody was visualized by addition of a color-generating reagent (OPD Peroxidase Substrate). The absorbance was measured at 492 nm with a microplate spectrophotometer (Bio-Rad, Hemel Hempstead, United Kingdom). The nomenclature of gangliosides is based on that of Svennerholm (Svennerholm, 1964. J Lipid Res 5: 145-155).\nFIG. 8 illustrates the effect of GD3-like peptides on binding of R24 mAb to GD3 by ELISA. Each of the GD3-peptide mimics in solution (PGD3-1, PGD3-2, PGD3-3, PGD3-4, PGD3-5, or PGD3-6) was incubated with R24 mAb for 30 min at room temperature at various concentrations as indicated in the horizontal axis. An aliquot of the mixtures (100 μL), was added to each well of an ELISA plate coated with 0.1 μg of GD3. The remaining binding activity of R24 mAb was measured by ELISA. Values are mean±SEM, n=6 individual experiments.\n(§2) Anti-ganglioside antibody activity was evaluated for GM1, GM2, GD1a, GD1b, GT1b, GQ1b, GD3, and LOSGD3 by conventional ELISA as previously described (Usuki et al., 2005. J. Neurol. Sci. 232:37-44). To measure half-maximal inhibitory concentrations (IC50s) of GD3-like peptides for binding of GD3 to mAb R24, each well of the ELISA plate (Immunlon 1B, Lab System, Franklin, Mass., USA) was coated with 0.1 μg of GD3, and prior to ELISA assay was treated by 1% BSA/PBS solution. The purified mAb R24 IgG (10 μg/mL by 1% BSA/PBS solution) was incubated with various concentrations of GD3-like peptides (PGD3-1, PGD3-2, PGD3-3, PGD3-4, PGD3-5, and PGD3-6) for 30 min. After incubation, the reaction mixture was passed through a 0.22-μm syringe filter (Millipore Corp., Bedford, Mass., USA), and 100 μL of the mixture was added to each well and incubated for 1 h at room temperature. A secondary antibody (horseradish peroxidase-conjugated anti-mouse IgG, 1:5000 dilution in 1% BSA/PBS solution) was applied, incubated for 1 h at room temperature, and visualized by addition of a color-generating reagent (OPD Peroxidase Substrate). The absorbance was measured at 492 nm with a microplate spectrophotometer (BioRad, Hemel Hempstead, UK)."}, "LOSGD3-sensitized rats [2]": {"tested_on": "LOSGD3-sensitized rats", "assay": "Rotarod motor test", "details": "LOSGD3/peptide group vs LOSGD3 treatment group, week 17", "method": "Twelve-week-old female Lewis rats weighing 200-250 g were used. One hundred micrograms LOSGD3 was dissolved in 50 mM PBS buffer with a vehicle of 0.05 ml keyhole limpet hemocyanin (KLH; 2 mg/ml) and emulsified with an equal volume of complete Freund's adjuvant (CFA). Rats were given a single subcutaneous injection of 0.1 ml inoculum (or vehicle) into the shoulders and the footpads of the hind limbs. In addition, booster injections were administered similarly to injections in LOSGD3 (or vehicle)-treated animals at 2-week intervals with 100 μg LOSGD3 (or no additive) and 2 mg/ml KLH in PBS emulsified with an equal volume of incomplete Freund's adjuvant (ICFA) 6 weeks thereafter. Sixteen experimental animals were divided into four groups (n=4 each): 1) LOSGD3, 2) LOSGD3/BEC2, 3) vehicle, and 4) vehicle/BEC2. The remaining animals were included as the untreated control group (n=4). As shown in the third and fourth stepladders of FIG. 2, BEC2 (5 mg kg^−1) was administered to rats once per week from 8 to 15 weeks.\nA rat was placed on a rotating roller (4 cm in diameter), and the time for which the rat remained on the roller was measured. The test included eight trials; each trial was performed at an interval of 10 min; four trials were performed. An additional four trials were conducted after 24 hr. When the rat could stay on the rotating rod at a constant speed of 5 rpm for a cumulative duration of at least 2 sec, the rotation speed was increased by 0.2 rpm/sec.\nTwelve-week-old female Lewis rats, weighing 200-220 g each, were used. One hundred micrograms of LOSGD3 was dissolved in 50 mM PBS buffer as vehicle, and with 0.05 mL of keyhole limpet hemocyanin (2 mg/mL) emulsified with an equal volume of complete Freund's adjuvant. A single subcutaneous injection of 0.1 mL of inoculum (or vehicle) was made into the rats' shoulders and hind limb footpads. […]"}, "[3]": {"tested_on": "anti-GD3 antibody and anti-LOSGD3 antibody", "assay": "Time course of serum anti-GD3 and anti-LOSGD3 antibody (ELISA) in immunized rats", "assay_type": "in vivo, Lewis rats", "details": "peptide 1000 nmol/kg i.p. daily, from weeks 8, 11 and 14", "procedure": "as §1\nas §2, with “A secondary antibody (horseradish peroxidase-conjugated anti-mouse IgG, 1:5000 dilution in 1% BSA/PBS solution) was applied, incubated for 1 h at room temperature, and visualized by addition of a color-generating reagent (OPD Peroxidase Substrate).” left out"}, "[4]": {"assay": "Pharmacokinetic study of bPGD3-4 after i.p. single dose (streptavidin-coated ELISA of plasma)", "details": "for tmax: normal Lewis rats", "method": "Briefly, the plasma samples from the single-dose administration of bPGD3-4 were applied to the streptavidin-coated ELISA plates at serial double dilutions in 1% bovine serum albumin/phosphate buffered-saline (BSA/PBS) solution. […] After washing with 1% BSA/PBS buffer, each well was treated with an anti-mouse IgG horseradish peroxidase-conjugated antibody (Jackson ImmunoResearch Lab, West Grove, Pa., USA). This secondary antibody was pre-treated with rat IgG to eliminate contamination from any anti-rat IgG binding activity. Finally, the bound secondary antibody was visualized by a color-generating reagent (OPD Peroxidase Substrate in PBS; Sigma, St Louis, Mo., USA). Half-saturation absorbance values for plasma samples were estimated by serial plasma dilution curves of ELISA. The absorbances were then converted into values of plasma concentration using a standard serial dilution curve of rat serum containing authentic bPGD3-4.\nA Micro-Renathane polyurethane cannula, 0.84 mm o.d.×0.36 mm i.d., (Braintree Scientific Inc., Braintree, Mass.) was inserted before dosing into the femoral vein of a female Lewis rat (n=9; body weight=200±20 g). […] Blood samples were centrifuged at room temperature and the plasma harvested. The plasma samples were stored at −60° C. to −80° C. until analyzed by a streptavidin-coated ELISA plate for determining the total concentration of bPGD3-4.\nThe following parameters were calculated: maximum-, minimum-, and average-observed plasma concentration (Cmax, Cmin, and Cav), areas under the plasma concentration-time curve from zero to infinite time (AUC) plasma clearance (CL), distribution half-life (t1/2α), and elimination half-life (t1/2β)."}, "[5]": {"details": "as restated in Example 12, read-out: IC50 values for the active peptides"}, "[6]": {"details": "simulated, 1,000 nmol kg^−1 i.p. at 24-hourly intervals for 7 days"}, "[7]": {"details": "i.p. single dose 100.0 nmol kg^−1, mean (SD)"}, "[8]": {"details": "i.p. single dose 500.0 nmol kg^−1, mean (SD)"}, "[9]": {"details": "i.p. single dose 1000.0 nmol kg^−1, mean (SD)"}},
  "note": "Read-outs that look alike come from different tables or passages of the source. No end group written: not given here.",
  "data": [
    {"substance": "ACTPYAMLPGCK [PGD3-5, GD3-like peptide]", "values": [
      {"measurement": "effect on NCV", "setting": "LOSGD3-sensitized rats [1]", "value": "less attenuation of NCV"},
      {"measurement": "inhibitory activity on GD3 reactivity to mAb R24", "setting": "mAb R24; ELISA", "value": "remarkable inhibitory activities"},
      {"measurement": "IC50", "setting": "mAb R24; [5]", "value": 100, "unit": "nM"},
      {"measurement": "IC50", "setting": "mAb R24; read-out: IC50, competitive inhibition of GD3 reactivity to mAb R24, ELISA, 0.1 μg GD3 per well, as printed in Example 11", "value": 100, "unit": "nM"},
      {"measurement": "rotarod retention time / motor performance", "setting": "LOSGD3-sensitized rats [2]", "value": "did not show any statistically significant differences"},
      {"measurement": "effect on serum anti-GD3 / anti-LOSGD3 antibody level", "setting": "[3]", "value": "effective in suppressing serum anti-GD3 antibody activity"}
    ]},
    {"substance": "GLAPPDYAERFFLIS [PGD3-3, GD3-like peptide]", "values": [
      {"measurement": "inhibitory activity on GD3 reactivity to mAb R24", "setting": "mAb R24; ELISA", "value": "remarkable inhibitory activities"},
      {"measurement": "IC50", "setting": "mAb R24; [5]", "value": 300, "unit": "nM"},
      {"measurement": "rotarod retention time / motor performance", "setting": "LOSGD3-sensitized rats [2]", "value": "did not show any statistically significant differences"},
      {"measurement": "effect on serum anti-GD3 / anti-LOSGD3 antibody level", "setting": "[3]", "value": "no suppression of either anti-LOSGD3 or anti-GD3 antibodies"}
    ]},
    {"substance": "LAPPRPRSELVFLSV [PGD3-1, GD3-like peptide]", "values": [
      {"measurement": "inhibitory activity on GD3 reactivity to mAb R24", "setting": "mAb R24; ELISA", "value": "little or no inhibitory activity"}
    ]},
    {"substance": "PHFDSLLYPCELLGC [PGD3-2, GD3-like peptide]", "values": [
      {"measurement": "inhibitory activity on GD3 reactivity to mAb R24", "setting": "mAb R24; ELISA", "value": "little or no inhibitory activity"}
    ]},
    {"substance": "RHAYRSMAEWGFLYS [PGD3-4]", "values": [
      {"measurement": "Cmax", "setting": "[4]; read-out: Cmax, chronic simulation, simulated, 1,000 nmol kg^−1 i.p. at 24-hourly intervals for 7 days", "value": 670, "unit": "µM"},
      {"measurement": "Cav, chronic simulation", "setting": "[4]; [6]", "value": 340, "unit": "µM"},
      {"measurement": "Cmin, chronic simulation", "setting": "[4]; [6]", "value": 0.33, "unit": "µM"}
    ]},
    {"substance": "SVAVPPPADDPSWRY [PGD3-6, GD3-like peptide]", "values": [
      {"measurement": "inhibitory activity on GD3 reactivity to mAb R24", "setting": "mAb R24; ELISA", "value": "remarkable inhibitory activities"},
      {"measurement": "IC50", "setting": "mAb R24; [5]", "value": 250, "unit": "nM"},
      {"measurement": "rotarod retention time / motor performance", "setting": "LOSGD3-sensitized rats [2]", "value": "did not show any statistically significant differences"},
      {"measurement": "effect on serum anti-GD3 / anti-LOSGD3 antibody level", "setting": "[3]", "value": "no suppression of either anti-LOSGD3 or anti-GD3 antibodies"}
    ]},
    {"substance": "bPGD3-4: biotinylated product of GD3-like peptide PGD3-4 (RHAYRSMAEWGFLYS; also: biotinylated, site not given here)", "values": [
      {"measurement": "AUC (zero to infinite time)", "setting": "[4]; [7]", "value": "130.0 (43.6) nmol mL^−1 hr"},
      {"measurement": "CL (plasma clearance)", "setting": "[4]; [7]", "value": "0.82 (0.24) mL hr^−1"},
      {"measurement": "Cmax", "setting": "[4]; [7]", "value": 70.8, "unit": "µM"},
      {"measurement": "t1/2α (distribution half-life)", "setting": "[4]; [7]", "value": "0.48 (0.03) hr"},
      {"measurement": "t1/2β (elimination half-life)", "setting": "[4]; [7]", "value": "2.45 (0.27) hr"},
      {"measurement": "AUC (zero to infinite time)", "setting": "[4]; [8]", "value": "589.2 (72.9) nmol mL^−1 hr"},
      {"measurement": "CL (plasma clearance)", "setting": "[4]; [8]", "value": "0.86 (0.11) mL hr^−1"},
      {"measurement": "Cmax", "setting": "[4]; [8]", "value": 267, "unit": "µM"},
      {"measurement": "t1/2α (distribution half-life)", "setting": "[4]; [8]", "value": "0.42 (0.03) hr"},
      {"measurement": "t1/2β (elimination half-life)", "setting": "[4]; [8]", "value": "2.45 (0.33) hr"},
      {"measurement": "AUC (zero to infinite time)", "setting": "[4]; [9]", "value": "1425.7 (78.8) nmol mL^−1 hr"},
      {"measurement": "CL (plasma clearance)", "setting": "[4]; [9]", "value": "0.71 (0.04) mL hr^−1"},
      {"measurement": "Cmax", "setting": "[4]; [9]", "value": 667, "unit": "µM"},
      {"measurement": "t1/2α (distribution half-life)", "setting": "[4]; [9]", "value": "0.46 (0.03) hr"},
      {"measurement": "t1/2β (elimination half-life)", "setting": "[4]; [9]", "value": "2.76 (0.42) hr"},
      {"measurement": "tmax", "setting": "[4]; i.p. single dose 100.0 nmol kg^−1, n = 3", "value": 30, "unit": "min"},
      {"measurement": "tmax", "setting": "[4]; i.p. single dose 500.0 nmol kg^−1, n = 3", "value": 30, "unit": "min"},
      {"measurement": "tmax", "setting": "[4]; i.p. single dose 1000.0 nmol kg^−1, n = 3", "value": 30, "unit": "min"},
      {"measurement": "death or toxicity after peptide administration", "setting": "[4]; rats, i.p. single dose of 100, 500 and 1,000 nmol kg^−1", "value": "None of the experimental rats died or exhibited toxicity"},
      {"measurement": "linearity of pharmacokinetics", "setting": "[4]; single-dose range 100-1000 nmol kg^−1", "value": "linear pharmacokinetics"}
    ]}
  ]
}
